From paper PMC4945878

What was measured:
[1] = molecular target: Claspin Cdel2 (human, UniProt Q9HAW4 1-1339, del1101-1209); assay: EMSA; higher binding than full-length; 10 mM Tris-HCl pH 7.5, 40 ug/ml BSA, 1 mM DTT, EDTA (50 mM as printed for EMSA; 0.5 mM for filter binding), 20 mM K-glutamate, 8% glycerol, 30 C, 1 h
[2] = molecular target: Claspin Cdel1 (human, UniProt Q9HAW4 1-985+=GS+1210-1339, internal_change); assay: EMSA; higher affinity than full-length; 10 mM Tris-HCl pH 7.5, 40 ug/ml BSA, 1 mM DTT, EDTA (50 mM as printed for EMSA; 0.5 mM for filter binding), 20 mM K-glutamate, 8% glycerol, 30 C, 1 h
[3] = molecular target: Claspin #25 (N-terminal polypeptide) (human, UniProt Q9HAW4 1-896); assay: EMSA; plus #13 DE/A (aa897-1209) 1.5 or 3 pmol, no significant inhibition; 10 mM Tris-HCl pH 7.5, 40 ug/ml BSA, 1 mM DTT, EDTA (50 mM as printed for EMSA; 0.5 mM for filter binding), 20 mM K-glutamate, 8% glycerol, 30 C, 1 h
[4] = molecular target: Claspin wild-type full-length (human, UniProt Q9HAW4 1-1339); assay: EMSA; 0.5 and 1.0 pmol protein, 20 fmol DNA; much lower affinity than C-terminal deletions; 10 mM Tris-HCl pH 7.5, 40 ug/ml BSA, 1 mM DTT, EDTA (50 mM as printed for EMSA; 0.5 mM for filter binding), 20 mM K-glutamate, 8% glycerol, 30 C, 1 h

Measured: binding result

Claspin wild-type full-length, sequence (Q9HAW4 whole entry): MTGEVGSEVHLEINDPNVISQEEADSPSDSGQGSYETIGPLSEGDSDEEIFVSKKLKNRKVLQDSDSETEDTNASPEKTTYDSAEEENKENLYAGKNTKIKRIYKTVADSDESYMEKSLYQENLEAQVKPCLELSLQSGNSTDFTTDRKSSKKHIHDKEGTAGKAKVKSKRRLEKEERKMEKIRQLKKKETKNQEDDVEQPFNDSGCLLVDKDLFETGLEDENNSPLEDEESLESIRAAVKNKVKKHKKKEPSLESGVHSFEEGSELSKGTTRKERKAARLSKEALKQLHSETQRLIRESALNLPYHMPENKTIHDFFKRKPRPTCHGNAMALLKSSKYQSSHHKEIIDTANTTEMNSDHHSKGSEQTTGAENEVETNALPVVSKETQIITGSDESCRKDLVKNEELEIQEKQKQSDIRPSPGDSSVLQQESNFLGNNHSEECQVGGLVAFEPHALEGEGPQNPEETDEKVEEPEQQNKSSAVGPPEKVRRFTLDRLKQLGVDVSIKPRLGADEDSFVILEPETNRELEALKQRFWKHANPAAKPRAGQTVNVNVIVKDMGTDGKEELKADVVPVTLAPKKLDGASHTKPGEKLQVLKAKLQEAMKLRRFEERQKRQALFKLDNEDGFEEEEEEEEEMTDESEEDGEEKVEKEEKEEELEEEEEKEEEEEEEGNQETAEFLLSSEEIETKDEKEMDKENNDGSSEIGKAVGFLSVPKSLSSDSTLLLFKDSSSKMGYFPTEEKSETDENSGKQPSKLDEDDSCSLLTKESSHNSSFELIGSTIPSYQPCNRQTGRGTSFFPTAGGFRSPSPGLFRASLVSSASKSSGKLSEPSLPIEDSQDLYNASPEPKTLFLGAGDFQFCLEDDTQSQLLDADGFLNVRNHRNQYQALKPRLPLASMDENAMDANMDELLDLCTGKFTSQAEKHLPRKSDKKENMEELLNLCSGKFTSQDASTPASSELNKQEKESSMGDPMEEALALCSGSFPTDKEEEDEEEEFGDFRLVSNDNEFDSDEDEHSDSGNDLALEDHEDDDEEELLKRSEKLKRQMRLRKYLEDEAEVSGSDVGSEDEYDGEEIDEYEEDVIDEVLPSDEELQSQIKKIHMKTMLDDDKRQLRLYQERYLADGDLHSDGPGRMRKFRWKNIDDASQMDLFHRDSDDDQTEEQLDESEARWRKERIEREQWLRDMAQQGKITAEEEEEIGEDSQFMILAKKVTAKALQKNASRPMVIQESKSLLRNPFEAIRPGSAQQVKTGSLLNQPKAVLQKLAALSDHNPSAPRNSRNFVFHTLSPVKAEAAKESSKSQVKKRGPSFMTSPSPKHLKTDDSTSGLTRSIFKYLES
Claspin Cdel1, sequence (Q9HAW4 other isoform, or with tags, fused parts or gaps): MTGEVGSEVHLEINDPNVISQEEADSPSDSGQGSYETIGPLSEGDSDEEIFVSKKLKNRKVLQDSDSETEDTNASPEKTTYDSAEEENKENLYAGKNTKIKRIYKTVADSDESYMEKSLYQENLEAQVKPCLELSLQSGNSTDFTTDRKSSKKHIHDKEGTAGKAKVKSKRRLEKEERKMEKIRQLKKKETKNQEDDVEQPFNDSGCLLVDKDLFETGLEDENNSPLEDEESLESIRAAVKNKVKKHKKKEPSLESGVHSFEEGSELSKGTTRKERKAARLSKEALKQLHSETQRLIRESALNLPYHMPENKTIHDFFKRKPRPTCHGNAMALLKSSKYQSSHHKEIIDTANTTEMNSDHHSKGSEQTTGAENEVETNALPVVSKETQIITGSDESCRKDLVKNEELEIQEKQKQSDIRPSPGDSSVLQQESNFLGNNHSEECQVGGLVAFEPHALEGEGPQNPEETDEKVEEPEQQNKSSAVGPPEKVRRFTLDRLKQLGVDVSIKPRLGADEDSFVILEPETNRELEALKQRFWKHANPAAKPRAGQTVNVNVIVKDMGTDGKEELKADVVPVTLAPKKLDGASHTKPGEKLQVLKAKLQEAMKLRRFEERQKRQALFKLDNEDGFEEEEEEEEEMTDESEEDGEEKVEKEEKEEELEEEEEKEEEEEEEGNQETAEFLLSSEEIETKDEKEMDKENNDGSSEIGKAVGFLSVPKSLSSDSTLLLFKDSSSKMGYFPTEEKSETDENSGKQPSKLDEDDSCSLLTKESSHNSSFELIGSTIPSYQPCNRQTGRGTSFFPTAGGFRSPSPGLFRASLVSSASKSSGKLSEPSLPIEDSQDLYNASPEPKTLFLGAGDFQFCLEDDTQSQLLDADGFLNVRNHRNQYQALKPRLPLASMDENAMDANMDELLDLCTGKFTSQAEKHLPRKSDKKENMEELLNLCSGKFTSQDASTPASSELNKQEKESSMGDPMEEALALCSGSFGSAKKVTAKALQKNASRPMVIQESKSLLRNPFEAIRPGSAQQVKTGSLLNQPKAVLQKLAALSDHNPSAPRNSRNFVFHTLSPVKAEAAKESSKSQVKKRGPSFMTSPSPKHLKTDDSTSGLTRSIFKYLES
Claspin #25 (N-terminal polypeptide), sequence (Q9HAW4 1-896): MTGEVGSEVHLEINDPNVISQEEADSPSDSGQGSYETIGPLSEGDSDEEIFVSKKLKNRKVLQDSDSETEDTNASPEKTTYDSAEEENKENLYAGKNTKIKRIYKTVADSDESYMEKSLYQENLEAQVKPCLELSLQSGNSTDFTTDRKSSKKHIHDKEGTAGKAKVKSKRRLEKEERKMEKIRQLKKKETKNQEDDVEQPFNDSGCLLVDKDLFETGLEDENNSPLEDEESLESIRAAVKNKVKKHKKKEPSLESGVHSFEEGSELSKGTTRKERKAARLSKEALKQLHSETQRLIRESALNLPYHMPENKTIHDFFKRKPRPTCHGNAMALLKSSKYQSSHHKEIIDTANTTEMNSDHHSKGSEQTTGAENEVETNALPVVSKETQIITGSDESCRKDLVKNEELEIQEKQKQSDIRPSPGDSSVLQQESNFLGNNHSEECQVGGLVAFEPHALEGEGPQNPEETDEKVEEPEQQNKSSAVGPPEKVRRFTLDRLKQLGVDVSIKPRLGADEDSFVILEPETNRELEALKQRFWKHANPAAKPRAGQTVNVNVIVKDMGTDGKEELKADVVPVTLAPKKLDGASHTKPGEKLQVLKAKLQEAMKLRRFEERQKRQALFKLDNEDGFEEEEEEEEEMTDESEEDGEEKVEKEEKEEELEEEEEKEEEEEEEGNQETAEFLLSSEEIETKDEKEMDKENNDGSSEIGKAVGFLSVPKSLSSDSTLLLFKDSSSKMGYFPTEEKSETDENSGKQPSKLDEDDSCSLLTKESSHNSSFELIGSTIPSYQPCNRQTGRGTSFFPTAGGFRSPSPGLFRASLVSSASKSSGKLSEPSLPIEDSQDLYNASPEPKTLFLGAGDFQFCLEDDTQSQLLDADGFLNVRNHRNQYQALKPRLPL
Claspin Cdel2, sequence (Q9HAW4 other isoform, or with tags, fused parts or gaps del1101-1209): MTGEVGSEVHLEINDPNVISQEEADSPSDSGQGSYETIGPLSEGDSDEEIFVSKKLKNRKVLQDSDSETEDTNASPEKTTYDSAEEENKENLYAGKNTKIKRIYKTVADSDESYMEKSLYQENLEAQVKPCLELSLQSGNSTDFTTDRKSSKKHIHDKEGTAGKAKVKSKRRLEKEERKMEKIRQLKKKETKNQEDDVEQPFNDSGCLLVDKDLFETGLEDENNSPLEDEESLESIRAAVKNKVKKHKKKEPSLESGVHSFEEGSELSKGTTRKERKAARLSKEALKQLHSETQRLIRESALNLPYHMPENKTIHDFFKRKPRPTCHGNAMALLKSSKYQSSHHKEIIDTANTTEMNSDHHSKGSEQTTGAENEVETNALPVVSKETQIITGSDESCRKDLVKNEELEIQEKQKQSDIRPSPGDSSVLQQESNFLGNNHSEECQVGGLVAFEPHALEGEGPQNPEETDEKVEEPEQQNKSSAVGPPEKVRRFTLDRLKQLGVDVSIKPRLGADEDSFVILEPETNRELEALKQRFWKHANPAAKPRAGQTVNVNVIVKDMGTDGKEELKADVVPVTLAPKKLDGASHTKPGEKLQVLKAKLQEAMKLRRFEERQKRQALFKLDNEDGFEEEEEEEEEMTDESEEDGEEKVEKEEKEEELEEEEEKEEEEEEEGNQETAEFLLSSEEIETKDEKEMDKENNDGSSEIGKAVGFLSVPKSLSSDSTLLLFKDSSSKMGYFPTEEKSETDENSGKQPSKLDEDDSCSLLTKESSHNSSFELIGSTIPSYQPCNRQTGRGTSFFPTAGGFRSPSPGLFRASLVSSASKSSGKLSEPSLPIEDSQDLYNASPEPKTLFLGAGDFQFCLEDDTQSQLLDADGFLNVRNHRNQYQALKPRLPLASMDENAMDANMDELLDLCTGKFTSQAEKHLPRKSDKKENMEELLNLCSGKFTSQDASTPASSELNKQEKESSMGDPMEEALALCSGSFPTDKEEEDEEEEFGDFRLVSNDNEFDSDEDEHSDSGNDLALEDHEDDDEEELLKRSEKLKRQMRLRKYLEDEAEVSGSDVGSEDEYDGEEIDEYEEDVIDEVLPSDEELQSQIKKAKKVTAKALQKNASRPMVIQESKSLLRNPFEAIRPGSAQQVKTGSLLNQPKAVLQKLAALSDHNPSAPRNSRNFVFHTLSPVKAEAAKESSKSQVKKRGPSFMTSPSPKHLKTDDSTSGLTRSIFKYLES

B1: Y-fork DNA (mixed)
DNA 1: AACGTCGTGACTGGGCACTTGATCGGCCAACCTTTTTTTTTTTTTTTTTTTTTTTTTTTTTTTT
DNA 2: TTTTTTTTTTTTTTTTTTTTTTTTTTTTTTTTGGTTGGCCGATCAAGTGCCCAGTCACGACGTT
binds: all assays above
